Results from patent US20210040193A1 (published 2021).

Experiments:
[1] = biological target: T1, Recombinant human PD-1 (Beijing Sino Biological Inc., Catalog No. 10377-H08H) (human, UniProt Q15116 25-167); assay: ELISA; panel A
[2] = biological target: T1, Recombinant human PD-1 (Beijing Sino …); assay: ELISA; panel B

T1 sequence (Q15116 25-167): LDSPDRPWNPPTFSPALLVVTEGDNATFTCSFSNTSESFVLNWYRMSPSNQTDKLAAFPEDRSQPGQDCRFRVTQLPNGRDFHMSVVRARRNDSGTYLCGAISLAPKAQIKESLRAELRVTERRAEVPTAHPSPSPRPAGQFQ

EC50 [1]: 0.061 nM | EC50 [2]: 0.04 nM
B1: PD-1 (BJHM) monoclonal antibody (antibody, V domains shown)
VH: EVNLVESGGGLVQPGGSLRLSCAASGFTFSSYGMSWVRQAPGKGLEWVASISGGGRYTYYPDSMKGRFTISRDNSKNNLYLQMNSLRAEDTAVYYCVYEYFYTMDYWGQGTLVTVSS
VL: DIVLTQSPATLSLSPGERATLSCRASQSISNNLHWYQQKPGQAPRLLIRFASQSISGIPARFSGSGSGTDFTLTISSLEPEDFAVYFCQQSDNWPLTFGGGTKVEIK
